# Test results: the Human Domainome abundance scans (Beltran et al. 2025)
# ± gives the uncertainty stated by the source.
# B1: Protein C-ets-1, residues 55 to 135; numbered along this chain, P14921 (parent)
# chain: GFTKEQQRLGIPKDPRQWTETHVRDWVMWAVNEFSLKGVDFQKFCMNGAALCALGKDCFLELAPDFVGDILWEHLEILQKE
# Variants of: B1
# Assay: abundance fitness (aPCA) (normalised: wild type 0, dead -1); higher = more abundant; growth selection in yeast, the domain comes from the species named
# Conditions: Homo sapiens
row,Variant,abundance fitness
1,GFTKEQQRLGIPKDPRQWTETHVRDWVMWAVNEFSLKGVDFQKFCMNGAALCALGKDCFLELAPDFVCDILWEHLEILQKE,-0.156 ± 0.094
2,GFTKEQQRLGIPKDPRQWTETHVRDWVMWAVNEFSLKGVDHQKFCMNGAALCALGKDCFLELAPDFVGDILWEHLEILQKE,0.045 ± 0.069
3,GFTKEQQRLGIPKDPRQWTETHVRDWVMWAVNEFSLKGVDFQKFCMNGAALCALGKDCFLELAPDFVGAILWEHLEILQKE,-0.031 ± 0.037
4,GFTKEQQRLGIPKDPRQWTETHVRDWVMWAVNEFSLKGVDFQKFCMNGAALRALGKDCFLELAPDFVGDILWEHLEILQKE,-0.564 ± 0.034
5,GFTKEQQRLGIPKDPRQWTETTVRDWVMWAVNEFSLKGVDFQKFCMNGAALCALGKDCFLELAPDFVGDILWEHLEILQKE,-0.528 ± 0.049
6,GFTKEQQRLGIPKDPDQWTETHVRDWVMWAVNEFSLKGVDFQKFCMNGAALCALGKDCFLELAPDFVGDILWEHLEILQKE,-0.147 ± 0.052
7,GFTKEQQRLGIPKDPRQWTETHVRDWVMWAVNEFSLKGVDFQKFCMWGAALCALGKDCFLELAPDFVGDILWEHLEILQKE,-1.01 ± 0.1
8,GFTKEQQRLGIPKDPRQWTETHVRDWVMWAVNEFSLKGVDFQKFCMNGAALCALGKDCFLELAPDFVGDILWMHLEILQKE,-0.277 ± 0.068
9,GFTKEQQRLGIPKDPRQWTETHVRDWVMWAVNEFSLKGVDFQKFCMNGAALCALNKDCFLELAPDFVGDILWEHLEILQKE,0.03 ± 0.085
10,GFTKEQQRLGCPKDPRQWTETHVRDWVMWAVNEFSLKGVDFQKFCMNGAALCALGKDCFLELAPDFVGDILWEHLEILQKE,-0.108 ± 0.1
11,GFTKEQQRLGIPKDPRQWTETHVRDWVMWAVNEFSLKGVDFQKFCMNGAALCYLGKDCFLELAPDFVGDILWEHLEILQKE,-0.583 ± 0.081
12,GFTKEQQRLGIPKDPRIWTETHVRDWVMWAVNEFSLKGVDFQKFCMNGAALCALGKDCFLELAPDFVGDILWEHLEILQKE,-0.114 ± 0.081
13,GFTKEAQRLGIPKDPRQWTETHVRDWVMWAVNEFSLKGVDFQKFCMNGAALCALGKDCFLELAPDFVGDILWEHLEILQKE,0.019 ± 0.043
14,GFTKEQQRLGIPKDPIQWTETHVRDWVMWAVNEFSLKGVDFQKFCMNGAALCALGKDCFLELAPDFVGDILWEHLEILQKE,-0.038 ± 0.087
15,GFTKEQQRLGIPKDPRQWTETHVRDWVMWAVNEFSLKGVDFQKFCMNGAALCALVKDCFLELAPDFVGDILWEHLEILQKE,-0.448 ± 0.036
16,GFTKEQQRLGIPKDPRQWTETHVRDWVMWAVNEFSLKGVDFQKFCMNGAALCALGKDCFLELAPDFVGDILWEHLESLQKE,0.065 ± 0.049
17,GFTKEQQRLGIPKDPRQWTETHVRDWVMWAVNEFSLKGVDFQKFCMNGAALCALGKDVFLELAPDFVGDILWEHLEILQKE,0.018 ± 0.035

row,Variant,abundance fitness
1,GFTKEQQRLGIPKDPRQWTETHVRDWVMWAVNEFSLKGVDFQKFCMNGAALSALGKDCFLELAPDFVGDILWEHLEILQKE,-0.185 ± 0.033
2,GFTKEQQRLGIPKMPRQWTETHVRDWVMWAVNEFSLKGVDFQKFCMNGAALCALGKDCFLELAPDFVGDILWEHLEILQKE,-0.52 ± 0.055
3,GCTKEQQRLGIPKDPRQWTETHVRDWVMWAVNEFSLKGVDFQKFCMNGAALCALGKDCFLELAPDFVGDILWEHLEILQKE,-0.408 ± 0.08
4,GFTKEQQRLGIPKDPRQWTETHVRDWVMWAVNEFSLKGVDFQKFCMNGAALCALGKDCFLELAPDFVGDILWEHIEILQKE,-0.21 ± 0.14
5,GFTKEQQRLGIPKDPRQWTETHVRDWVMWAVNEFSLKGVDFQKFCMNGAALCALGKDCFLELRPDFVGDILWEHLEILQKE,-0.924 ± 0.087
6,GFTKEQQRLGIPKDPRQWTETHVRDWVMWAVNEFSLKGVDFQKFCMNGAALCALGKDCNLELAPDFVGDILWEHLEILQKE,-0.494 ± 0.084
7,GFTKEQQRLGIPKDPRQWTETHVRDWVMWAVNEFSLKGVDFQKFCMNGAALCALQKDCFLELAPDFVGDILWEHLEILQKE,-0.08 ± 0.055
8,GFTKEQQRLGIPKDPRQWTETHVRDWVMWAVNEFSLKGVDFQKFCMNGAALCALGKDSFLELAPDFVGDILWEHLEILQKE,0.035 ± 0.027
9,LFTKEQQRLGIPKDPRQWTETHVRDWVMWAVNEFSLKGVDFQKFCMNGAALCALGKDCFLELAPDFVGDILWEHLEILQKE,-0.157 ± 0.092
10,GFTKEQQRLGIPKDPRQWTETHVRKWVMWAVNEFSLKGVDFQKFCMNGAALCALGKDCFLELAPDFVGDILWEHLEILQKE,-0.005 ± 0.049
11,GFTKEQQRLGIPKDPRQWTETHVRDWVMWAVNEFSLKGVDFQKFCMNGGALCALGKDCFLELAPDFVGDILWEHLEILQKE,-0.126 ± 0.022
12,GFTKEQQRLGIPKDPRQWTETHVRDWVMWAVNEFSLKGVDFQKFWMNGAALCALGKDCFLELAPDFVGDILWEHLEILQKE,-0.041 ± 0.043
13,GFTKEQQRLGIPKDPRQWTETHVRDWVMWAVNEQSLKGVDFQKFCMNGAALCALGKDCFLELAPDFVGDILWEHLEILQKE,-0.358 ± 0.047
14,GFTKEQQRLGIPKDPRQWTETHVRDWVMWAVNEFSLKGVDFQKFCMNGAALCALGKDCFLWLAPDFVGDILWEHLEILQKE,-0.908 ± 0.12
15,GFTKEQQRLGIPKDPRQWTETHVRDWVMWAVNEFSLKGVDFQKFCMNGAALCALGKDCFLELAPDFVGDILWEHMEILQKE,-0.169 ± 0.055
16,GFTKEQQRLGIPKDPRQWTETHVRDWVMWAVNEFSLKGVDFQKFVMNGAALCALGKDCFLELAPDFVGDILWEHLEILQKE,-0.05 ± 0.036
17,GFTKEQWRLGIPKDPRQWTETHVRDWVMWAVNEFSLKGVDFQKFCMNGAALCALGKDCFLELAPDFVGDILWEHLEILQKE,-0.133 ± 0.048
